Data: article PMC12733242, “The Functional Role of Gate Loop Residues in Arrestin Binding to GPCRs” (International Journal of Molecular Sciences, 2025)

Experiments:
[1] = biological target: T1, unphosphorylated light-activated bovine rhodopsin (bovine, UniProt P02699 1-348, light-activated); assay: radioligand binding; direct binding assay: 1 nM [14C]leucine-labelled arrestin-1 (50 fmol) from cell-free translation incubated with 0.3 μg of P-Rh* or Rh* (7.8 pmol) in 50 mM Tris-HCl pH 7.4, 100 mM potassium acetate, 1 mM EDTA, 1 mM DTT, 5 min at 37 °C under room light; bound arrestin separated with rhodopsin-containing membranes by gel filtration on Sepharose CL-2B at 4 °C, scintillation counting; binding in …; settings: one partner purified
T1 construct: rhodopsin, bovine, wild type, in native disk membranes; Native protein; source: purified bovine rhodopsin in native disk membranes, unphosphorylated
T1 sequence (P02699 whole entry): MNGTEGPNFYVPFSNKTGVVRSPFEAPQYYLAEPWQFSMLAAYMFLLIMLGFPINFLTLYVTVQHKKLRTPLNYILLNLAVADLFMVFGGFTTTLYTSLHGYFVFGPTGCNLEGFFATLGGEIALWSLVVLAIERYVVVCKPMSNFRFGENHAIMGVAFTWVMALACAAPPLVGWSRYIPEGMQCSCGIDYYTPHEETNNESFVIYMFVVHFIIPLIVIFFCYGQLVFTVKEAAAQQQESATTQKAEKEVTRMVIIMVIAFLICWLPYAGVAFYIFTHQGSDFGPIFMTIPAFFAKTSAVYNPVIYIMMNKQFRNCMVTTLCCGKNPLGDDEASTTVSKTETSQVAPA

[2] = biological target: T2, phosphorylated light-activated bovine rhodopsin (bovine, UniProt P02699 1-348, phosphorylated by endogenous rhodopsin kinase (GRK1), on average 2.6 phosphates per rhodopsin (sites not determined; the C-terminus has seven phosphorylatable serines and threonines); regenerated …); assay: as above; settings: one partner purified
T2 construct: rhodopsin, bovine, wild type, in native disk membranes; Native protein; also called P-Rh*
T2 sequence (P02699 whole entry): as above

increase of binding over WT [1]: 156%
increase of binding over WT [2]: 38%
B1: bovine arrestin-1 with deletion of Gly292 (natural protein)
chain: MKANKPAPNHVIFKKISRDKSVTIYLGKRDYIDHVERVEPVDGVVLVDPELVKGKRVYVSLTCAFRYGQEDIDVMGLSFRRDLYFSQVQVFPPVGASGATTRLQESLIKKLGANTYPFLLTFPDYLPCSVMLQPAPQDVGKSCGVDFEIKAFATHSTDVEEDKIPKKSSVRLLIRKVQHAPRDMGPQPRAEASWQFFMSDKPLRLAVSLSKEIYYHGEPIPVTVAVTNSTEKTVKKIKVLVEQVTNVVLYSSDYYIKTVAAEEAQEKVPPNSSLTKTLTLVPLLANNRERRIALDGKIKHEDTNLASSTIIKEGIDKTVMGILVSYQIKVKLTVSGLLGELTSSEVATEVPFRLMHPQPEDPDTAKESFQDENFVFEEFARQNLKDAGEYKEEKTDQEAAMDE
modifications: [14C]leucine incorporated
notes: arrestin-1, bovine; bovine residue numbers; source: cell-free translation, radiolabelled; translation mix after centrifugation
